# Results from US20240116997A1 (BRIGHT PEAK THERAPEUTICS, published 2024).
# Where a chain is given by its changes, count along the chain named. In names and notes the source's numbering stands. Several values for one entry are separate records, joined by “and”; a condition that tells them apart may be missing. Equal values may be shown once.
# B1: IL-18 polypeptide SEQ ID NO: 59 (E6K, C38A, K53A) (ligand)
# chain: YFGKLKSKLSVIRNLNDQVLFIDQGNRPLFEDMTDSDARDNAPRTIFIISMYADSQPRGMAVTISVKCEKISTLSCENKIISFKEMNPPDNIKDTKSDIIFFQRSVPGHDNKMQFESSSYEGYFLACEKERDLFKLILKKEDELGDRSIMFTVQNED
# B2: C154 (V11I, E31A, D37A, C38A, K53A, C76A, C127A) (ligand)
# chain: B1 chain with K6E, V11I, E31A, D37A, C76A, C127A
# B3: C160 (V11I, C38A, K53A, C76A, D110A, C127A) (ligand)
# chain: B1 chain with K6E, V11I, C76A, D110A, C127A
# B4: C153 (V11I, D37A, C38A, K53A, C76A, C127A) (ligand)
# chain: B1 chain with K6E, V11I, D37A, C76A, C127A
# B5: C145 (V11I, C38A, K53A, S55A, C76A, C127A) (ligand)
# chain: B1 chain with K6E, V11I, S55A, C76A, C127A
# B6: C157 (V11I, C38A, K53A, C76A, C127A, D132A) (ligand)
# chain: B1 chain with K6E, V11I, C76A, C127A, D132A
# B7: C163 (V11I, C38A, C76A, Q103K, C127A) (ligand)
# chain: B1 chain with K6E, V11I, A53K, C76A, Q103K, C127A
# B8: C151 (V11I, D35A, C38A, K53A, C76A, C127A) (ligand)
# chain: B1 chain with K6E, V11I, D35A, C76A, C127A
# B9: C147 (V11I, C38A, K53A, D54A, C76A, C127A) (ligand)
# chain: B1 chain with K6E, V11I, D54A, C76A, C127A
# B10: IL-18 polypeptide SEQ ID NO: 34 (E06K, K53A, S55A) (ligand)
# chain: B1 chain with A38C, S55A
# B11: C143 (V11I, C38A, K53A, C76A, C127A) (ligand)
# chain: B1 chain with K6E, V11I, C76A, C127A
# B12: C165 (V11I, C38A, S55R, C76A, C127A) (ligand)
# chain: B1 chain with K6E, V11I, A53K, S55R, C76A, C127A
# B13: C150 (V11I, T34A, C38A, K53A, C76A, C127A) (ligand)
# chain: B1 chain with K6E, V11I, T34A, C76A, C127A
# B14: C164 (V11I, C38A, S55H, C76A, C127A) (ligand)
# chain: B1 chain with K6E, V11I, A53K, S55H, C76A, C127A
# B15: C159 (V11I, C38A, K53A, C76A, H109A, C127A) (ligand)
# chain: B1 chain with K6E, V11I, C76A, H109A, C127A
# B16: C156 (V11I, C38A, N41A, K53A, C76A, C127A) (ligand)
# chain: B1 chain with K6E, V11I, N41A, C76A, C127A
# B17: C166 (V11I, C38A, S55T, C76A, C127A) (ligand)
# chain: B1 chain with K6E, V11I, A53K, S55T, C76A, C127A
# B18: C144 (V11I, C38A, K53A, T63A, C76A, C127A) (ligand)
# chain: B1 chain with K6E, V11I, T63A, C76A, C127A
# B19: C155 (V11I, C38A, D40A, K53A, C76A, C127A) (ligand)
# chain: B1 chain with K6E, V11I, D40A, C76A, C127A
# B20: C168 (V11I, C38A, C76A, S105K, C127A) (ligand)
# chain: B1 chain with K6E, V11I, A53K, C76A, S105K, C127A
# B21: C161 (K8R, V11I, C38A, C76A, Q103E, C127A) (ligand)
# chain: B1 chain with K6E, K8R, V11I, A53K, C76A, Q103E, C127A
# B22: C146 (SEQ ID NO: 79; V11I, C38A, M51G, K53A, C76A, C127A) (ligand)
# chain: B1 chain with K6E, V11I, M51G, C76A, C127A
# B23: C152 (V11I, S36A, C38A, K53A, C76A, C127A) (ligand)
# chain: B1 chain with K6E, V11I, S36A, C76A, C127A
# B24: IL-18 polypeptide SEQ ID NO: 57 (E6K, C38S, K53A) (ligand)
# chain: B1 chain with A38S
# B25: C149 (V11I, E31A, C38A, K53A, C76A, C127A) (ligand)
# chain: B1 chain with K6E, V11I, E31A, C76A, C127A
# B26: C158 (V11I, C38A, K53A, C76A, G108A, C127A) (ligand)
# chain: B1 chain with K6E, V11I, C76A, G108A, C127A
# B27: C167 (V11I, C38A, C76A, S105I, C127A) (ligand)
# chain: B1 chain with K6E, V11I, A53K, C76A, S105I, C127A
# B28: C162 (K8E, V11I, C38A, C76A, Q103R, C127A) (ligand)
# chain: B1 chain with K6E, K8E, V11I, A53K, C76A, Q103R, C127A
# B29: C148 (F2A, V11I, C38A, K53A, C76A, C127A) (ligand)
# chain: B1 chain with F2A, K6E, V11I, C76A, C127A
# Target: T1, IL-18 receptor (IL-18Rαβ) on cells (UniProt Q13478 19-541; O95256 20-599, limits assumed)
# T1 sequence (looked up) 1: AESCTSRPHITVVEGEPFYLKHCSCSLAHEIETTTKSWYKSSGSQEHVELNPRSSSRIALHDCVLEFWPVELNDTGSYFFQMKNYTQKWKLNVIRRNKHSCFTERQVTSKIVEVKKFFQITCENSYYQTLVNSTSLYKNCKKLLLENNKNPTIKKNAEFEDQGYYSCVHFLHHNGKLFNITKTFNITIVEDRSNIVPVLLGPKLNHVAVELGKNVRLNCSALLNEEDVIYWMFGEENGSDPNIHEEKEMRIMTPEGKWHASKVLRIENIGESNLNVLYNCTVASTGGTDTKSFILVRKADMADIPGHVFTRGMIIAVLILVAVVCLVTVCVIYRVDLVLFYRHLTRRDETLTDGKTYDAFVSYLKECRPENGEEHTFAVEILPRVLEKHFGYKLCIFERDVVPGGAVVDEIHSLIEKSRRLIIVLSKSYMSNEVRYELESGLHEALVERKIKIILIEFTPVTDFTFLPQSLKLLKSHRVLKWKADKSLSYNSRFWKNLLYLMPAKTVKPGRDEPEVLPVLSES
# T1 sequence (looked up) 2: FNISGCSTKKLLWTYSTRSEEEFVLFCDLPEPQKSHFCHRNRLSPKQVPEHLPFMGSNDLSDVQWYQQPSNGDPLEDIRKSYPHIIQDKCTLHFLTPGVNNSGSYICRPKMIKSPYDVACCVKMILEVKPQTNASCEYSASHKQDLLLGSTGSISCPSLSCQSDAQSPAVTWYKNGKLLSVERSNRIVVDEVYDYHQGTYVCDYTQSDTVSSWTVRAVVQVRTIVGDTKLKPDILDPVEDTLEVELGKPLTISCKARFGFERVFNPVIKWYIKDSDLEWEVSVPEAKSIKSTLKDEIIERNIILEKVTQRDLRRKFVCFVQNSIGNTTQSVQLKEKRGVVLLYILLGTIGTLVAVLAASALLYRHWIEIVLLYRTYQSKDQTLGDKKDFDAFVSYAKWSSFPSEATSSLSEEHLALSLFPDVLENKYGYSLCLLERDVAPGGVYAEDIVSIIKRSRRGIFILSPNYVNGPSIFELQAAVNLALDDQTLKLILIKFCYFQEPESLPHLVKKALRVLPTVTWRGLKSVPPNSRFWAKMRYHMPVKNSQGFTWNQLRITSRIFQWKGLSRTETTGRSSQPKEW
# Assay: cell-based or functional assay
row,"EC50 (nM), IFNγ induction, NK-92 cells [nM]",Binder
1,0.045,B1
2,0.067,B2
3,0.057,B3
4,0.062,B4
5,0.037,B5
6,0.073,B6
7,0.414,B7
8,0.033,B8
9,0.256,B9
10,0.824,B10
11,0.012,B11
12,0.098,B12
13,0.061,B13
14,0.176,B14
15,0.028,B15
16,0.056,B16
17,0.103,B17
18,0.087,B18
19,0.558,B19
20,1.37,B20
21,0.061,B21
22,0.079,B22
23,0.175,B23
24,0.138,B24
25,0.015,B25
26,0.123,B26
27,0.098,B27
28,0.093,B28
29,0.187,B29

# Target: T1, IL-18 receptor (IL-18Rαβ) on cells
# Assay: cell-based or functional assay
# Remark: another data set of the same source
row,"EC50 (pM), HEK-Blue IL-18R reporter assay",Binder
1,0.268 pM,B1
2,11.9 pM,B2
3,2.02 pM,B3
4,14.1 pM,B4
5,3.63 pM,B5
6,1.95 pM,B6
7,1.5 pM,B7
8,13.1 pM,B8
9,1 pM,B9
10,272 pM,B10
11,0.98 pM,B11
12,1.91 pM,B12
13,0.7 pM,B13
14,3.14 pM,B14
15,19.5 pM,B15
16,11.7 pM,B16
17,4.73 pM,B17
18,0.17 pM,B18
19,0.52 pM,B19
20,7.73 pM,B20
21,2.01 pM,B21
22,0.8 pM,B22
23,0.25 pM,B23
24,0.86 pM and 0.53 pM,B24
25,6.6 pM,B25
26,15.6 pM,B26
27,5.37 pM,B27
28,2.3 pM,B28
29,7.28 pM,B29
